# Experimental data published in article PMC9499513 (Proceedings of the National Academy of Sciences of the …, 2022).
# Biological target: histone H4 (X. laevis, UniProt P62799 1-103)
# Assay: cryo-EM structure
binder,measurement,value
IMPORTIN-4 (natural protein) MESAGLEQLLRELLLPDTERIRRATEQLQIVLRAPAALPALCDLLASAADPQIRQFAAVLTRRRLNTRWRRLAAEQRESLKSLILTALQRETEHCVSLSLAQLSATIFRKEGLEAWPQLLQLLQHSTHSPHSPEREMGLLLLSVVVTSRPEAFQPHHRELLRLLNETLGEVGSPGLLFYSLRTLTTMAPYLSTEDVPLARMLVPKLIMAMQTLIPIDEAKACEALEALDELLESEVPVITPYLSEVLTFCLEVARNVALGNAIRIRILCCLTFLVKVKSKALLKNRLLPPLLHTLFPIVAAEPPPGQLDPEDQDSEEEELEIELMGETPKHFAVQVVDMLALHLPPEKLCPQLMPMLEEALRSESPYQRKAGLLVLAVLSDGAGDHIRQRLLPPLLQIVCKGLEDPSQVVRNAALFALGQFSENLQPHISSYSREVMPLLLAYLKSVPLGHTHHLAKACYALENFVENLGPKVQPYLPELMECMLQLLRNPSSPRAKELAVSALGAIATAAQASLLPYFPAIMEHLREFLLTGREDLQPVQIQSLETLGVLARAVGEPMRPLAEECCQLGLGLCDQVDDPDLRRCTYSLFAALSGLMGEGLAPHLEQITTLMLLSLRSTEGIVPQYDGSSSFLLFDDESDGEEEEELMDEDVEEEDDSEISGYSVENAFFDEKEDTCAAVGEISVNTSVAFLPYMESVFEEVFKLLECPHLNVRKAAHEALGQFCCALHKACQSCPSEPNTAALQAALARVVPSYMQAVNRERERQVVMAVLEALTGVLRSCGTLTLKPPGRLAELCGVLKAVLQRKTACQDTDEEEEEEDDDQAEYDAMLLEHAGEAIPALAAAAGGDSFAPFFAGFLPLLVCKTKQGCTVAEKSFAVGTLAETIQGLGAASAQFVSRLLPVLLSTAQEADPEVRSNAIFGMGVLAEHGGHPAQEHFPKLLGLLFPLLARERHDRVRDNICGALARLLMASPTRKPEPQVLAALLHALPLKEDLEEWVTIGRLFSFLYQSSPDQVIDVAPELLRICSLILADNKIPPDTKAALLLLLTFLAKQHTDSFQAALGSLPVDKAQELQAVLGLS,binding result,binds
